Values of other authors in article PMC11036797.
pKd: −log10 of the molar value.

Columns and labels:
[1] = molecular target: FZD2 (Homo sapiens) (UniProt Q14332)
[2] = molecular target: FZD7 (Homo sapiens) (UniProt O75084)
[3] = molecular target: CSPG4 (Homo sapiens) (UniProt Q6UVK1)
[4] = molecular target: nectin-3 (Homo sapiens) (UniProt Q9NQS3)
[5] = molecular target: FZD1 (Homo sapiens) (UniProt Q9UP38)
Chain of FZD1 (Homo sapiens) (Q9UP38 70-647): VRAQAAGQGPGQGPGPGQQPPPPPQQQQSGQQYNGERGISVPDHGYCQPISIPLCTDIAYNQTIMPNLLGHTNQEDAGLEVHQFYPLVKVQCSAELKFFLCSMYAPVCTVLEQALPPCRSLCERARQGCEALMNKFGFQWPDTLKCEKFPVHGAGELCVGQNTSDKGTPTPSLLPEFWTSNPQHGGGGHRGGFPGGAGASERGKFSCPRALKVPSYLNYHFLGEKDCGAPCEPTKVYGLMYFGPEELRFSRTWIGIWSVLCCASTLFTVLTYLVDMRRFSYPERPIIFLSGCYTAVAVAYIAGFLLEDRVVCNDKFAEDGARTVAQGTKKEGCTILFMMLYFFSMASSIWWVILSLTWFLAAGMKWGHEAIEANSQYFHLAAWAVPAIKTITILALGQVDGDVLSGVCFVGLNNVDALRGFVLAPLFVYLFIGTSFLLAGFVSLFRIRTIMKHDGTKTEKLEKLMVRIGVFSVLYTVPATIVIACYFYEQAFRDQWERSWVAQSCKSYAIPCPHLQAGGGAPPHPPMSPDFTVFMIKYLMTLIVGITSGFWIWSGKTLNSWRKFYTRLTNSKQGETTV

Chain of nectin-3 (Homo sapiens) (Q9NQS3 58-549): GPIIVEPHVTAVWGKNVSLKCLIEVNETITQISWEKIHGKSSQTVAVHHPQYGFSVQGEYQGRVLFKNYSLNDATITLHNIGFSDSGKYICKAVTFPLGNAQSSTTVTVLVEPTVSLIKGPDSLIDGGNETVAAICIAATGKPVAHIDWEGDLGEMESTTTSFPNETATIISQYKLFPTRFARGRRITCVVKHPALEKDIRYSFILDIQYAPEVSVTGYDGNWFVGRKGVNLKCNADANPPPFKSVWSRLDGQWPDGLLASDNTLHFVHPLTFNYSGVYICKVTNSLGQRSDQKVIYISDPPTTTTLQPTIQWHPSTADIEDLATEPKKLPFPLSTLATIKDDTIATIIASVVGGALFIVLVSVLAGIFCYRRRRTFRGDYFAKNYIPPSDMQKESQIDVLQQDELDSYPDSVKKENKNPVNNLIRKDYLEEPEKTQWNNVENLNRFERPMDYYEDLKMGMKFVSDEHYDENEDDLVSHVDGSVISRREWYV
Chain of CSPG4 (Homo sapiens) (Q6UVK1 30-2322): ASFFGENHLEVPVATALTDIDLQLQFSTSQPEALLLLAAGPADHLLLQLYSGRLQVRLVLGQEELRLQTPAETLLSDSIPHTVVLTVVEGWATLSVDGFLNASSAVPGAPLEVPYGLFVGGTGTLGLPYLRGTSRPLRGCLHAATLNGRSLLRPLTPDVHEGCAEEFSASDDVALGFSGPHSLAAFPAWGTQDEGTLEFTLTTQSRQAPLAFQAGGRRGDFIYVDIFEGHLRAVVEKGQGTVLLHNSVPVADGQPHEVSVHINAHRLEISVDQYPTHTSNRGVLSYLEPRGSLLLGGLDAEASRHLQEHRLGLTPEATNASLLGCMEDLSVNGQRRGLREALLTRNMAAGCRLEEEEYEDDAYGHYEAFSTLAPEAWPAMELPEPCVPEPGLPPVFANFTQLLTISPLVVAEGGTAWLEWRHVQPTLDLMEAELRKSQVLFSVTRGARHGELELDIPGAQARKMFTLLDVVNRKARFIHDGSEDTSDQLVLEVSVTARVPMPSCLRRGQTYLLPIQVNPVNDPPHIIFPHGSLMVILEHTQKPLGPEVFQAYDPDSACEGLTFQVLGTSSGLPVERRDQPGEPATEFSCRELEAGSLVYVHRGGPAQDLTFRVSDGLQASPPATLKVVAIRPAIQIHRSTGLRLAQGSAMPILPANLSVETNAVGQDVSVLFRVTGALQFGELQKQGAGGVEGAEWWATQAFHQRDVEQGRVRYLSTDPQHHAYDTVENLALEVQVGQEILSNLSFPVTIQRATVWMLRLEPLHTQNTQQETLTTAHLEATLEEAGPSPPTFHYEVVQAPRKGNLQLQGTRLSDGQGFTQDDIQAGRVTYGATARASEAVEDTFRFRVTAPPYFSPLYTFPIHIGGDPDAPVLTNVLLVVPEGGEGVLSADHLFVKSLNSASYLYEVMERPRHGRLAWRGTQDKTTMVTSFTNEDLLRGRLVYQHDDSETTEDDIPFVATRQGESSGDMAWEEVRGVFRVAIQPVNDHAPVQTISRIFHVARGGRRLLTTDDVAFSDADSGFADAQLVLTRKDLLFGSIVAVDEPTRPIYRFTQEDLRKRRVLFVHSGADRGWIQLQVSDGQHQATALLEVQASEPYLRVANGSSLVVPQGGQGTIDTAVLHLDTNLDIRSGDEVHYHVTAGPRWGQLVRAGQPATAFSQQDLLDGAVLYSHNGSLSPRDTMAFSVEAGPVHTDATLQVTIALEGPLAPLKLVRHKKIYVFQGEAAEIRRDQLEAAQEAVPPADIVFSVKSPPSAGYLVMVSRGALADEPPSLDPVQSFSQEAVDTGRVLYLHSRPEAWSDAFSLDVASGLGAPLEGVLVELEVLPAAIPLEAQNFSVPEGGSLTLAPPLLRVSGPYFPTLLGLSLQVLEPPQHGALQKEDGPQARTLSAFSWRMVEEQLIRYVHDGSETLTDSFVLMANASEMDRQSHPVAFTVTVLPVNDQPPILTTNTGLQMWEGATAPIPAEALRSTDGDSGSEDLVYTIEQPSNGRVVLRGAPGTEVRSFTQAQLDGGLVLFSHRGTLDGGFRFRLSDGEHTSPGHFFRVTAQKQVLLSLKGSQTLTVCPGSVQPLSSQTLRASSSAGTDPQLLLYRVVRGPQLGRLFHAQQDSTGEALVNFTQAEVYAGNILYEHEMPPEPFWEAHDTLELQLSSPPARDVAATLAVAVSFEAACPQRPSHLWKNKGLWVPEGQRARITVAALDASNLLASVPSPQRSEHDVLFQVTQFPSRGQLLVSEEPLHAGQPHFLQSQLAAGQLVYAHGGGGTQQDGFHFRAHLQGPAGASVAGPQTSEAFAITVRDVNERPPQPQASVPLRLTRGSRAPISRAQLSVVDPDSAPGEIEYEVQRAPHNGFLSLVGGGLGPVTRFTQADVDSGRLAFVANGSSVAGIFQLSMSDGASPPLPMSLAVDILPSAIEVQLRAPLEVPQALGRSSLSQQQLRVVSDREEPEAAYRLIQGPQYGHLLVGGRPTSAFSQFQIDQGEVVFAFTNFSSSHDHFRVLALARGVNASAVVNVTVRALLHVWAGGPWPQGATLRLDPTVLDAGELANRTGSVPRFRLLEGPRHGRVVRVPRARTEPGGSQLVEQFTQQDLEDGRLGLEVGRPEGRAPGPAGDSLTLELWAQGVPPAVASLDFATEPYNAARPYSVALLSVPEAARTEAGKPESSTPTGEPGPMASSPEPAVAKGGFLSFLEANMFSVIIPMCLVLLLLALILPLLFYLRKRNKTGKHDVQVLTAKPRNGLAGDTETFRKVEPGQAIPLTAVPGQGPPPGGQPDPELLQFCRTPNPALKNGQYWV
Chain of FZD2 (Homo sapiens) (Q14332 24-565): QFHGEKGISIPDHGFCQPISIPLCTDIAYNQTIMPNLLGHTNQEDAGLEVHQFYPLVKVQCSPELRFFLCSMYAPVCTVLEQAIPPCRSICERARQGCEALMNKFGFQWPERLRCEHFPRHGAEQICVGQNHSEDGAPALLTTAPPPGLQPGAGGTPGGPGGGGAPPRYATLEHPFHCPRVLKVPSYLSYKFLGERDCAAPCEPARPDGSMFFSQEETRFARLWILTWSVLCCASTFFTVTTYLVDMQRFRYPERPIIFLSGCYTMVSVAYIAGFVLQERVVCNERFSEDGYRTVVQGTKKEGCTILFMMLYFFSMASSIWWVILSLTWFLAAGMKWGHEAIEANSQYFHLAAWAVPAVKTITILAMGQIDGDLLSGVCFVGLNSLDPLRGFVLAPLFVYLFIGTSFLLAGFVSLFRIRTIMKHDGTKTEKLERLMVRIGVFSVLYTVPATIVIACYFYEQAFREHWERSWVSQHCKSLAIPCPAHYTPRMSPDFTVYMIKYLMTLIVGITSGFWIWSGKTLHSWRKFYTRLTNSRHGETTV

With TcdB1 (from UniProt P18177) as the substance, how does the pKd [1] read?
Its pKd is 7.72.

What about the pKd [2] of the same substance?
The pKd was 7.57.

And the pKd [3]?
The pKd was 7.82.

And the pKd [4]?
Its pKd is 7.28.

And the pKd [5]?
The pKd was 7.49.
